# In PMC10214761:
# Molecular target: IgG1k from human myeloma plasma (IgG1 MC) (human)
# Experiment: SPR
row,Kd [nM],Substance
1,309,human Fcγ receptor IIa (hFcγRIIa) (from UniProt P12318 34-217)
2,3360,human Fcγ receptor IIb/c (hFcγRIIb/c) (from UniProt P31994 43-217)
